Source: PMC8062686, “Structural variation at the maize WUSCHEL1 locus alters stem cell organization in inflorescences”

Molecular target: T1, GST-ZmRR8 DNA-binding domain (Zea mays, UniProt Q9AV93 191-262)
T1 sequence: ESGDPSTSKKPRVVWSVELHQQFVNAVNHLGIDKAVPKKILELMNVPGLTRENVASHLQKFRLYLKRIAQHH
Assay: EMSA; 1x LightShift Binding Buffer, 50 ng/uL poly(dI/dC), 2.5% glycerol, room temperature 20 min, 6% DNA retardation gel; pH and salt not given
Settings: protein: recombinant; tags: GST (pET-60-DEST)

B1: m119 bp (three AGATAT to TTTTTT) (dsDNA)
DNA 1: TAATTTTTTCGTCGTATCCCATGATCCTTCGTGTGTCAACTTCACTTGTCTCTCTCCAAATTTTTTCGTCGTATCCCATGATCCTTCCTCCCCTCCAAATTTTTTCGTCGTATCACAGTA
DNA 2: TACTGTGATACGACGAAAAAATTTGGAGGGGAGGAAGGATCATGGGATACGACGAAAAAATTTGGAGAGAGACAAGTGAAGTTGACACACGAAGGATCATGGGATACGACGAAAAAATTA
B1: no binding.
